Results on 14 molecules are retold here after publication PMC8580825, “Scaffolding protein CcmM directs multiprotein phase separation in β-carboxysome biogenesis” (Nature Structural & Molecular Biology, 2021).

The chains are these.
B1: EGFPC2_(17) (peptide)
chain: GWLAPEQQQRIYRGNAS
notes: the last 17 residues of CcaA, Synechococcus elongatus PCC 7942; residues 1-255 of CcaA replaced by EGFP-GSGGS; EGFP amplified from pEF-gfp (Addgene); source: E. coli BL21 (DE3), purified (Ni-NTA, H6Ub cleaved, SEC); not shown: EGFP with GSGGS linker, N-terminal, kept; His6-ubiquitin, N-terminal, cleaved
B2: γCAL domain of M58 (residues 1-198) (domain or fragment, Synechococcus elongatus PCC 7942, UniProt Q03513 1-198, looked up)
chain: MPSPTTVPVATAGRLAEPYIDPAAQVHAIASIIGDVRIAAGVRVAAGVSIRADEGAPFQVGKESILQEGAVIHGLEYGRVLGDDQADYSVWIGQRVAITHKALIHGPAYLGDDCFVGFRSTVFNARVGAGSVIMMHALVQDVEIPPGRYVPSGAIITTQQQADRLPEVRPEDREFARHIIGSPPVIVRSTPAATADFH
notes: also called γCAL198; source: E. coli BL21 (DE3), purified (Ni-NTA, H6Ub cleaved, SEC); not shown: His6-ubiquitin, N-terminal, cleaved
B3: SeM58-E303K (natural protein, Synechococcus elongatus PCC 7942, UniProt Q03513 1-539, looked up)
chain: MPSPTTVPVATAGRLAEPYIDPAAQVHAIASIIGDVRIAAGVRVAAGVSIRADEGAPFQVGKESILQEGAVIHGLEYGRVLGDDQADYSVWIGQRVAITHKALIHGPAYLGDDCFVGFRSTVFNARVGAGSVIMMHALVQDVEIPPGRYVPSGAIITTQQQADRLPEVRPEDREFARHIIGSPPVIVRSTPAATADFHSTPTPSPLRPSSSEATTVSAYNGQGRLSSEVITQVRSLLNQGYRIGTEHADKRRFRTSSWQPCAPIQSTNERQVLSELENCLSEHEGEYVRLLGIDTNTRSRVFKALIQRPDGSVPESLGSQPVAVASGGGRQSSYASVSGNLSAEVVNKVRNLLAQGYRIGTEHADKRRFRTSSWQSCAPIQSSNERQVLAELENCLSEHEGEYVRLLGIDTASRSRVFEALIQDPQGPVGSAKAAAAPVSSATPSSHSYTSNGSSSSDVAGQVRGLLAQGYRISAEVADKRRFQTSSWQSLPALSGQSEATVLPALESILQEHKGKYVRLIGIDPAARRRVAELLIQKP
notes: CcmM (M58), Synechococcus elongatus PCC 7942, point mutant in SSUL1; source: E. coli BL21 (DE3), purified as wild-type M58; not shown: His6-ubiquitin, N-terminal, cleaved
B4: SeM58-R43D (natural protein, Synechococcus elongatus PCC 7942, UniProt Q03513 1-539, looked up)
chain: B3 chain with R43D, K303E
notes: CcmM (M58), Synechococcus elongatus PCC 7942, point mutant in the γCAL domain; source: E. coli BL21 (DE3), purified as wild-type M58; not shown: His6-ubiquitin, N-terminal, cleaved
B5: SeM58-D21K (natural protein, Synechococcus elongatus PCC 7942, UniProt Q03513 1-539, looked up)
chain: B3 chain with D21K, K303E
notes: as for B4
B6: SeM58-D35K (natural protein, Synechococcus elongatus PCC 7942, UniProt Q03513 1-539, looked up)
chain: B3 chain with D35K, K303E
notes: as for B4
B7: SeM58-E17K (natural protein, Synechococcus elongatus PCC 7942, UniProt Q03513 1-539, looked up)
chain: B3 chain with E17K, K303E
notes: as for B4
B8: SeM58-R37D (natural protein, Synechococcus elongatus PCC 7942, UniProt Q03513 1-539, looked up)
chain: B3 chain with R37D, K303E
notes: as for B4
B9: γCAL domain of M58 (residues 1-181) (domain or fragment, Synechococcus elongatus PCC 7942, UniProt Q03513 1-181, looked up)
chain: MPSPTTVPVATAGRLAEPYIDPAAQVHAIASIIGDVRIAAGVRVAAGVSIRADEGAPFQVGKESILQEGAVIHGLEYGRVLGDDQADYSVWIGQRVAITHKALIHGPAYLGDDCFVGFRSTVFNARVGAGSVIMMHALVQDVEIPPGRYVPSGAIITTQQQADRLPEVRPEDREFARHIIG
notes: residues 1-15 disordered in the crystals; also called γCAL181; source: E. coli BL21 (DE3), purified (Ni-NTA, H6Ub cleaved, SEC); not shown: His6-ubiquitin, N-terminal, cleaved

The target in data set [1] is SeM58-R481D (Synechococcus elongatus PCC 7942) (UniProt Q03513). Briefly: SEC-MALS; 2 mg/ml protein; 50 mM Tris-HCl pH 8.0/150 mM KCl or 50 mM Tris-HCl pH 8.0/500 mM KCl/5 mM DTT; 25 °C; oligomeric state in solution. For orientation: Size exclusion chromatography separates by hydrodynamic size, large species first.
In data set [2] the target is SeM58-R367D (Synechococcus elongatus PCC 7942) (UniProt Q03513). The description is as above.
The target of data set [3] is SeM58-R251D (Synechococcus elongatus PCC 7942) (UniProt Q03513). Described as above.
The target in data set [4] is SeM58-R298D (Synechococcus elongatus PCC 7942) (UniProt Q03513). Described as above.
Data set [5] has as its target SeM58-R252D (Synechococcus elongatus PCC 7942) (UniProt Q03513). The data set is described as above.
In data set [6] the target is B2. Briefly: ITC; EGFPC2_(17) (365 μM) in the syringe titrated into γCAL(1–198) (14 μM); 20 °C; 50 mM Tris pH 8.0/100 mM KCl/10 mM Mg(OAc)2; one-site binding model. Conditions: both partners purified. In general terms: Isothermal titration calorimetry measures the heat released or taken up as one component is titrated into another.
Data set [7] concerns the molecule itself. In words: SEC-MALS; 2 mg/ml protein; 50 mM Tris-HCl pH 8.0/150 mM KCl or 50 mM Tris-HCl pH 8.0/500 mM KCl/5 mM DTT; 25 °C; oligomeric state in solution.

Numbering of substitutions follows the chain as printed.

On to “SeM58-R481D (from UniProt Q03513 1-539) (natural protein)”, for which, in data set [1], the stoichiometry N stood at 3.

“SeM58-R367D (from UniProt Q03513 1-539) (natural protein)”: in data set [2], the stoichiometry N was determined as 3.

As for “SeM58-R251D (from UniProt Q03513 1-539) (natural protein)”, the stoichiometry N in data set [3] came out at 3.

For the molecule “SeM58-R298D (from UniProt Q03513 1-539) (natural protein)”, in data set [4], the stoichiometry N was 3.

As for “SeM58-R252D (from UniProt Q03513 1-539) (natural protein)”, the stoichiometry N in data set [5] turned out to be 3.

Regarding B1, in data set [6], the dissociation constant (Kd) is ~2000 nM and the “stoichiometry N” value was ~2.7 per γCAL198 trimer.

Turning to B2, the “stoichiometry N” value in data set [7] worked out at 3.

For the molecule B3, the “stoichiometry N” value in data set [7] turned out to be 3.

B4: in data set [7], the “stoichiometry N” value is 3.

For B5, the “stoichiometry N” value in data set [7] is 3.

As for B6, the “stoichiometry N” value in data set [7] was determined as 3.

With B7, the “stoichiometry N” value in data set [7] was 3.

Take B8: the “stoichiometry N” value in data set [7] was determined as 3.

For B9, in data set [7], the “stoichiometry N” value amounted to 3.

The stoichiometry N is a count of units in the complex or per binding partner. The Kd is the free concentration of one partner at which half of the binding sites on the other are occupied at equilibrium, for simple one-to-one binding. Read a high Kd as weaker binding.
